Test system: ubiquitylated proteins
Test: Co-Immunoprecipitation using Anti-HA and Western Blot
Type: binding
Settings: immunoprecipitation with Anti-HA
Source text: FIG. 11. Micropeptide of sequence SEQ ID NO: 1 expression changes cell ubiquitylation pattern. (A) Co-Immunoprecipitation using Anti-HA and Western Blot experiments indicate the presence of ubiquitylated proteins in the pull down of SEQ ID NO: 1 expressing cells. (B) Analysis of ubiquitylated protein levels by Western Blot in SEQ ID NO: 1 or empty vector BxPC-3 infected cells after proteasome blocking treatment with MG132.

B1: SEQ ID NO: 1: highly conserved 87 aa micropeptide coded by the lncRNA TINCR; predicted ubiquitin-like protein (protein, listed as Homo sapiens)
chain: MEGLRRGLSRWKRYHIKVHLADEALLLPLTVRPRDTLSDLRAQLVGQGVSSWKRAFYYNARRLDDHQTVRDARLQDGSVLLLVSDPR
  binding to ubiquitylated proteins: binds to ubiquitylated proteins
